Here are results for one substance from patent US20050261179.

Series [1] concerns adrenomedullin (synthetic human AM).
The target in series [2] is human complement factor H (UniProt P08603).
Sequence of human complement factor H (P08603 19-1231): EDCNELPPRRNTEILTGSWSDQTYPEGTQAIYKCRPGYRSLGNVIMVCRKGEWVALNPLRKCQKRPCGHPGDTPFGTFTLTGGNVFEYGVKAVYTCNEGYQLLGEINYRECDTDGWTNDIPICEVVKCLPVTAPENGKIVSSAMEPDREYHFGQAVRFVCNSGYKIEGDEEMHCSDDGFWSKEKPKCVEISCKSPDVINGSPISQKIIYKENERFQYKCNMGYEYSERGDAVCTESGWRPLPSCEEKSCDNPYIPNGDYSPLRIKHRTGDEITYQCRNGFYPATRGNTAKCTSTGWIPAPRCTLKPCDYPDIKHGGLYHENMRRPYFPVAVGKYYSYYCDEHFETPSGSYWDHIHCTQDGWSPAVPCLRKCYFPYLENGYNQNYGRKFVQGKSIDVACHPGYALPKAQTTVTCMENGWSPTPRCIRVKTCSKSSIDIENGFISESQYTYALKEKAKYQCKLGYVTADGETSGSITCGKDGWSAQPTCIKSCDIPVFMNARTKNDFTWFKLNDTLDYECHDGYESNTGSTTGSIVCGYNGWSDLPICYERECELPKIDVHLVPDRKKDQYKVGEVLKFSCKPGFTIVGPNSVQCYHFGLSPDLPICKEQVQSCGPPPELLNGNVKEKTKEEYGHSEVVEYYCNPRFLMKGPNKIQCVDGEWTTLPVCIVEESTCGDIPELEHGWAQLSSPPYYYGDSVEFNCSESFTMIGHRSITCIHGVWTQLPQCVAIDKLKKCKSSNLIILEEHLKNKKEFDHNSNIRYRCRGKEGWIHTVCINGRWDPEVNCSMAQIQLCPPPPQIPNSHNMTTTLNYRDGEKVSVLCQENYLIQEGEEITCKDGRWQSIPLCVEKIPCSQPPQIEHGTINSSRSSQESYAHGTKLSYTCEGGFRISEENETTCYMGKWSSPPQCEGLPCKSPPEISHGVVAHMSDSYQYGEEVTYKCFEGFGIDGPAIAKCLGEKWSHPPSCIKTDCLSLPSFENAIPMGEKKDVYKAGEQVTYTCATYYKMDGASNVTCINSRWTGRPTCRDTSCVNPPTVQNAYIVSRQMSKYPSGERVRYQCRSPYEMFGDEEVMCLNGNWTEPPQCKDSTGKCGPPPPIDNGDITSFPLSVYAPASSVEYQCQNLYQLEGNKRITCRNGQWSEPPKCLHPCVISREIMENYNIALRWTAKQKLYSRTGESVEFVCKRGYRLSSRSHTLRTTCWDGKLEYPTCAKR

For the substance human recombinant MMP-9, the “degradation of synthetic AM (gel)” value in series [1] is on record as “The resistance of AM to degradation by MMP-9”. Moreover, the “degradation of factor H (gel)” value in series [2] was “is not a substrate for either one of the MMPs”.
